“Also recorded” adds a separate entry of the source.
Legend:
[1] = test system: Staphylococcus epidermidis reference culture No. 26069; assay: Bacteria growth curve (A595 nm cloudiness), Staphylococcus epidermidis; assay type: cell-based; settings: drug 2 μg/ml, 37° C., A595 nm per hour
Protocol: The bacterium is Staphylococcus epidermidis reference culture No. 26069, purchased from China Center of Culture Collection (National Institute for the Control of Pharmaceutical and Biological Products). 3 microliter of bacterium solution (10^6 CFU/ml level bacterium amount) was added into 10 ml culture solution containing 1% peptone, 1% NaCl, 0.5% yeast extract, 0.5% glucose and 0.1% K2HPO4. Totally four groups were prepared. The first group as control was added 0.3M NaCl+50 mM boric acid buffer fluid by the same volume with that of antibiosis polypeptide liquid added in any experimental groups, the second group was added penicillin G sodium by 2 μg/ml, PMC-SA1 and PMC-SE was added in the other experimental groups by 2 μg/ml (0.3 M NaCl+50 mM boric acid buffer fluid was preservative fluid).
The solution of above groups was put into 100 ml conical flask, 200 rpm, grew at 37° C. 100 μl was sampled per hour, and added onto 96-pore ELISA plate to measure bacteria grown cloudiness by spectrophotometer (A595 nm) color comparison. The bacteria growth curve was drawn up to compare the bacteriostasis efficacy of the novel antibiotics.

Enterococcus ATCC 700802 [2] = assay: Protection test in vivo (intravenous injection) of infected mice; parameters: species or system Kungming mice; settings: mice, infected with 7.0 × 10^6 cfu/ml i.p., drug once intravenous
Outline: (§1)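 Mice got a lethal intraperitoneal bacterial challenge, then one intravenous dose of drug in sterile water at 10, 5 or 2.5 mg/kg. Survival was checked every 24 h for 7–14 days, with death counted as the positive result.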

E. coli 02-1-65 [3] = assay: as above; parameters: species or system Kungming mice; settings: mice, infected with 3.8 × 10^5 cfu/ml i.p., drug once intravenous
Outline: as §1

[4] = test system: Staphylococcus aureus MRSA BAA-42; assay: MIC against the infecting strain (Table 2); assay type: cell-based; settings: Staphylococcus aureus MRSA BAA-42
Outline: (§2)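 Agar doubling dilution on Mueller-Hinton agar plates holding serial drug concentrations; inocula of 10^5 CFU/ml per spot applied by multipoint inoculator. Enterococcus grown in MH medium with 5-10% defibrinated rabbit blood at 37° C, 5% CO2. Plates read after 18-24 h at 37° C; MIC = lowest concentration with no growth.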

E. coli 02-1-65 [5] = assay: MIC against the infecting strain (Table 2); assay type: cell-based; settings: E. coli 02-1-65
Outline: as §2

[6] = test system: Staphylococcus aureus ATCC 29213; assay: MIC against the infecting strain (Table 2); assay type: cell-based; settings: ATCC29213
Outline: as §2

Enterococcus ATCC 700802 [7] = assay: MIC against the infecting strain (Table 2); assay type: cell-based, Enterococcus faecalis; settings: ATCC700802
Outline: as §2

[8] = test system: methicillin-resistant Staphylococcus aureus (ATCC BAA-42); assay: Transmission electron microscope observation of bactericidal effect; assay type: cell-based
Protocol: Transmission Electron Microscope Observations of the Bactericidal Effect of the Novel Antibiotic PMC-SA1 on Methicillin-Resistant Staphylococcus aureus (ATCC BAA-42) (Dyed by 1% Phospho-Wolframic Acid, Magnified by 25,000 Fold)
Culture solution: 1% tryptone, 1% NaCl, 0.5% yeast extract, 0.5% glucose, 0.1% K2HPO4.
Con: control group, the bacterium was added to the above culture solution and proper amount of 0.3 M NaCl+50 mM boric acid buffer solution, 200 rpm, grew at 37° C. for 2 hours, and the bacterial appearance was still regular;
PMC: the bacterium was added to the above culture solution with 10 μg/ml PMC-SA1 for 0.5 hours.

[9] = test system: methicillin-resistant Staphylococcus aureus ATCC BAA-42; assay: Bacteria growth curve (A595 nm), comparison of the novel antibiotics; assay type: cell-based; settings: drug 5 μg/ml, 37° C., A595 nm per hour
Outline: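 MRSA ATCC BAA-42 (10^6 CFU/ml inoculum level) grown in peptone/NaCl/yeast extract/glucose/K2HPO4 broth at 37 °C, 200 rpm, with each polypeptide at 5 μg/ml; buffer (0.3 M NaCl + 50 mM boric acid) and penicillin G 5 μg/ml as controls. Turbidity (A595 nm) sampled hourly for growth curves.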

B1: PMC-SA1: Staphylococcus aureus pheromone AgrD I linked to C-terminus of allosteric colicin Ia′; SEQ ID NO. 13; plasmid pBHC-SA1 (protein)
chain: SDPVRITNPAAESLGYDSDGREIMGVDIYLNPPRVDVFKGTPPAWSSFGNKTIWGGNEWVDDSPTRSDIEKRDKEITAYKNTLSAQQKENENKRTEAGKRLSAAIAAREKDENTLKTLRAGNADAADITRQEFRLLQAELREYGFRTEIAGYDALRLHTESRMLFADADSLRISPREARSLIEQAEKRQKDAQNADKKAADMLAEYERRKGILDTRLSELEKNGGAALAVLDAQQARLLGQQTRNDRAISEARNKLSSVTESLNTARNALTRAEQQLTQQKNTPDGKTIVSPEKFPGRSSTNHSIVVSGDPRFAGTIKITTSAVIDNRANLNYLLSHSGLDYKRNILNDRNPVVTEDVEGDKKIYNAEVAEWDKLRQRLLDARNKITSAESAVNSARNNLSARTNEQKHANDALNALLKEKENIRNQLSGINQKIAEEKRKQDELKATKDAINFTTEFLKSVSEKYGAKAEQLAREMAGQAKGKKIRNVEEALKTYEKYRADINKKINAKDRAAIAAALESVKLSDISSNLNRFSRGLGYAGKFTSLADWITEFGKAVRTENWRPLFVKTETIIAGNAATALVALVFSILTGSALGIIGYGLLMAVTGALIDESLVEKANKFWGIYSTCDFIM
modifications: The peptide of PMC-SA1
notes: Staphylococcus aureus pheromone AgrD I linked to C-terminus of allosteric colicin Ia′; 13; plasmid pBHC-SA1
[1]
  growth of Staphylococcus epidermidis (bacteria growth curve): partly restrained
Enterococcus ATCC 700802 [2]
  ED50: 18.2 mg/kg
E. coli 02-1-65 [3]
  ED50: 3.78 mg/kg
[4]
  MIC: 0.5 µg/mL
E. coli 02-1-65 [5]
  MIC: 1 µg/mL
[6]
  MIC: 0.5 µg/mL
Enterococcus ATCC 700802 [7]
  MIC: 16 µg/mL
[8]; 10 μg/ml PMC-SA1 vs 500 μg/ml oxacillin
  antibiosis effect relative to oxacillin (by molecular weight and concentration): about eight thousand
[8]; PMC-SA1 10 μg/ml, 0.5 hours
  bactericidal effect, bacterial appearance under transmission electron microscope: bacterium were ruptured, the contents were leaked out; also recorded: the bacterium ruptured and leaked out its contents; also recorded: could kill methicillin-resistant Staphylococcus aureus effectively
[9]
  bacteriostasis effect on growth of methicillin-resistant Staphylococcus aureus (bacteria growth curve): the best

Reference: patent US8563503B2, “Antibiotic, its nucleotide sequence, methods of construction and uses thereof” (Protein Design Lab. Ltd., priority 2011, dated 2013)
